21 molecules from patent US20200079844A1 (Ablynx, published 2020) can be followed below.

Where a chain is given by its changes, count along the chain named.

The chains are these.
B1: PMP1G11 (VHH)
VHH: QVQLQESGGGMVQPGGSLRLSCAASGFDFGVSWMYWVRQAPGKGLEWVSEINTNGLITKYPDSVKGRFTISRDNAKTTLYLQMNSLKPEDTALYYCARSPSGSFRGQGTQVTVSS
notes: Tested as unpurified protein
B2: PMP1H6 (VHH)
VHH: B1 VHH with Q1E, Q5V, M11L, A24T, G30S, P61V, T77N, N84D, K87I
notes: Tested as unpurified protein
B3: PMP1H2 (VHH)
VHH: QVKLEESGGGLVQPGDSLRLSCAASGRTFSDYSGYTYTVGWFRQAPGKEREFVARIYWSSGNTYYADSVKGRFTISRDIAKNTVDLLMNNLEPEDTAVYYCAARDGIPTSRSVESYNYWGQGTQVTVSS
notes: Tested as unpurified protein
B4: PMP3G2 (VHH)
VHH: B3 VHH with Q1A, K3Q, E5V
notes: Tested as unpurified protein
B5: TNF31 (TNF2 HUM1) (VHH)
VHH: EVQLVESGGGLVQPGGSLRLSCAASGFTFSEPSGYTYTIGWFRQAPGKGREFVARIYWSSGLTYYADSVKGRFTISRDIAKNTVDLQMNSLRPEDTAVYYCAARDGIPTSRSVGSYNYWGQGTQVTVSS
notes: Humanised TNF2, second round; tags not restated
B6: TNF32 (TNF2 HUM2) (VHH)
VHH: B5 VHH with Q124L
notes: as for B5
B7: TNF16 (TNF2 HUM2) (VHH)
VHH: B5 VHH with R92K
notes: Humanised TNF2, first round
B8: TNF18 (TNF2 HUM4) (VHH)
VHH: B5 VHH with F27R
notes: Humanised TNF2, first round
B9: TNF17 (TNF2 HUM3) (VHH)
VHH: B5 VHH with F27R, I79N, R92K
notes: Humanised TNF2, first round
B10: TNF15 (TNF2 HUM1) (VHH)
VHH: B5 VHH with F27R, R92K
notes: Humanised TNF2, first round
B11: TNF19 (TNF2 HUM5) (VHH)
VHH: B5 VHH with F27R, R92K, Q124L
notes: Humanised TNF2, first round
B12: TNF20 (TNF3 HUM1) (VHH)
VHH: EVQLVESGGGLVQPGGSLRLSCAASGRSLSNYYMGWFRQAPGKGRELLGNISWRGYNIYYKDSVKGRFTISRDDSKNTIYLQMNSLKPEDTAVYYCAASILPLSDDPGWNTYWGQGTQVTVSS
B13: TNF22 (TNF3 HUM3) (VHH)
VHH: B12 VHH with P88T
B14: TNF23 (TNF3 HUM4) (VHH)
VHH: B12 VHH with Q118L
B15: TNF21 (TNF3 HUM2) (VHH)
VHH: B12 VHH with R27F, S28T, L29F
B16: PMP6C1 (VHH)
VHH: AVQLVDSGGGLVQPGGSLRLSCAASGFSFGSFGMSWVRQYPGKEPEWVSSINGRGDDTRYADSVKGRFSISRDNAKNTLYLQMNSLKPEDTAEYYCTIGRSVSRSRTQGTQVTVSS
notes: Class B serum albumin nanobody; tested as unpurified protein
B17: PMP6 G7 (VHH)
VHH: QVQLVESGGGLVQPGGSLRLSCAASGFTFSNYWMYWVRVAPGKGLERISRDISTGGGYSYYADSVKGRFTISRDNAKNTLYLQMNSLKPEDTALYYCAKDREAQVDTLDFDYRGQGTQVTVSS
notes: serum albumin nanobody, class D
B18: PMP6 G8 (VHH)
VHH: AVQLVESGGGLVQPGGSLRLTCTASGFTFRSFGMSWVRQAPGKDQEWVSAISADSSTKNYADSVKGRFTISRDNAKKMLYLEMNSLKPEDTAVYYCVIGRGSPSSPGTQVTVSS
notes: serum albumin nanobody, class A
B19: PMP6 A5 (VHH)
VHH: QVQLAESGGGLVQPGGSLRLTCTASGFTFGSFGMSWVRQAPGEGLEWVSAISADSSDKRYADSVKGRFTISRDNAKKMLYLEMNSLKSEDTAVYYCVIGRGSPASQGTQVTVSS
notes: as for B18
B20: PMP6B4 (VHH)
VHH: EVQLVESGGGLVQEGGSLRLACAASERIWDINLLGWYRQGPGNERELVATITVGDSTSYADSVKGRFTISRDYDKNTLYLQMNSLRPEDTGLYYCKIRRTWHSELWGQGTQVTVSS
notes: Class C serum albumin nanobody; tested as unpurified protein
B21: TNF33 (TNF3 HUM1) (VHH)
VHH: B12 VHH with K87R, Q118L

T3 sequence (P07724 25-608 limits assumed): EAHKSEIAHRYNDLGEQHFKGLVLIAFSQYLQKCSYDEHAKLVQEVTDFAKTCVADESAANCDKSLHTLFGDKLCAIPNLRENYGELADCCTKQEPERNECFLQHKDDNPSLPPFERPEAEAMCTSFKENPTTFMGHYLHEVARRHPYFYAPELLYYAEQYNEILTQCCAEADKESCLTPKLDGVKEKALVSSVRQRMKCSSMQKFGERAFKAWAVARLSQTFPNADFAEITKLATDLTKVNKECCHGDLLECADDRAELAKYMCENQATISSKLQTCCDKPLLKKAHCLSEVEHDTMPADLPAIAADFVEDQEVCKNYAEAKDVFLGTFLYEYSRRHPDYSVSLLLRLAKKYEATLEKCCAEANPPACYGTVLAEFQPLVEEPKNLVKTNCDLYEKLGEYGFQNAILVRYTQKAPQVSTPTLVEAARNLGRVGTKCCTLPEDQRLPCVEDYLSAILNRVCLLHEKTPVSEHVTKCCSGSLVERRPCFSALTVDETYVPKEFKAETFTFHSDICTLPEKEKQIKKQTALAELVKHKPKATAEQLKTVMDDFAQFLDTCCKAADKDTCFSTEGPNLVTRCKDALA

For the first assay, the target named is T1, human TNFα (human, UniProt P01375 77-233).
T1 construct: Biotinylated in the ELISAs, amine-coupled to CM5 in Biacore; also called human TNF-alpha; hTNF-alpha
T1 sequence (P01375 77-233 limits assumed): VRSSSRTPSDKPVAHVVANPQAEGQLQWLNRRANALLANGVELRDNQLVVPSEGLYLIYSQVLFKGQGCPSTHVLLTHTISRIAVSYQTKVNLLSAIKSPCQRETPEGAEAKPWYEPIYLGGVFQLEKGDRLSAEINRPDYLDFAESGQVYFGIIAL
Experiment: not given
Broadly, the koff is the first-order rate constant of dissociation. Lower therefore signals a long-lived complex. In turn, B1 had a koff of 0.00115 s⁻¹.
B2 gave a koff of 0.00214 s⁻¹.
On the same count and under the same terms, the value for B3 was 0.00365 s⁻¹; that for B4 was 0.0109 s⁻¹.

For another assay, the target named is T1, human TNFα. Put plainly: ELISA on biotinylated human TNFα captured on neutravidin (as Example 10); untreated reference and mildly treated samples. On the technique in general: An ELISA detects its analyte on a solid surface through an enzyme-linked reagent.
Usually EC50 (read off the curve) stands for the midpoint of the concentration-response curve. Lower therefore signals greater potency. As to B5, the “EC50 (read off the curve)” value was about 10 ng/mL.
On to B6, for which the “EC50 (read off the curve)” value is about 10 ng/mL.

The target in a further assay is T1, human TNFα. The assay is described as follows: cell-based or functional assay.
B7: the “EC50 in nM (mean); L929s + Act D cytotoxicity assay, human TNFa @ 0.5 ng/ml” value (“EC50 in nM (mean)” for short) is 1.9 nM.
Still for that read-out and setting: the value for B8 was 1.51 nM.
B9: the “EC50 in nM (mean)” value was determined as 3.02 nM.
With B10, the “EC50 in nM (mean)” value was found to be 1.67 nM.
The same measure, in the same setting: the value for B11 was 2.19 nM; that for B12 was 0.38 nM; that for B13 was 0.303 nM.
For B14, the “EC50 in nM (mean)” value is 0.3 nM.
On to B15, for which the “EC50 in nM (mean)” value was determined as 0.889 nM.

The next assay deals with T2, rhesus serum albumin (rhesus, UniProt Q28522 17-600).
T2 construct: On the Biacore chip; also called rhesus albumin
T2 sequence (Q28522 17-600 limits assumed): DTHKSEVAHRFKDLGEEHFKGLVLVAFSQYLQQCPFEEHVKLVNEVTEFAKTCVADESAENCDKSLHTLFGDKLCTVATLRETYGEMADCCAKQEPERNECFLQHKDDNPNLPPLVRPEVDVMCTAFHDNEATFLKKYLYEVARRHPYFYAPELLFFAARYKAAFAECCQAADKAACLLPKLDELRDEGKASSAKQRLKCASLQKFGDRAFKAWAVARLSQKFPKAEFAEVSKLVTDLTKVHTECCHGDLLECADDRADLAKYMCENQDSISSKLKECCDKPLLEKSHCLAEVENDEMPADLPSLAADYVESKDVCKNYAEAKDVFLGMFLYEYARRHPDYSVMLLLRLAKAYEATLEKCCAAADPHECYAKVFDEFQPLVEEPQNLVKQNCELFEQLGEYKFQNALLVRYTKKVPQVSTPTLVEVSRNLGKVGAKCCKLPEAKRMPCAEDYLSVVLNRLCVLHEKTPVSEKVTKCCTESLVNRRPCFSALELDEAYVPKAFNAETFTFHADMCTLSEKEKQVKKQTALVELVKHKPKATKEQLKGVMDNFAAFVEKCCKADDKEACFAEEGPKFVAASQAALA
Experiment: not given
For the molecule B16, the binding result is listed as “binds”.
The same measure, in the same setting: the value for B17 was “binds”; that for B18 was “binds”.
The same measure, in the same setting: the value for B19 was “binds”; that for B20 was “binds”.

Another assay has as its target T3, mouse serum albumin (mouse, UniProt P07724 25-608).
T3 construct: On the Biacore chip; also called mouse albumin
Experiment: not given
Regarding B16, the binding result is reported as “binds”.
Still for that read-out and setting: the value for B18 was “binds”.
The same measure, in the same setting: the value for B19 was “binds”; that for B20 was “binds”.

A further assay has as its target T1, human TNFα. Put plainly: cell-based or functional assay. This is another data set of the same source.
Regarding B5, the “EC50 in nM (mean)” value was 2.19 nM.
Same read-out and setting: the value for B7 was 2.42 nM; that for B8 was 3.13 nM.
As for B9, the “EC50 in nM (mean)” value stood at 7.55 nM.
Take B10: the “EC50 in nM (mean)” value stood at 5.9 nM.
The same measure, in the same setting: the value for B11 was 7.37 nM.
Same read-out and setting: the value for B6 was 2.51 nM.
In the case of B12, the “EC50 in nM (mean)” value came to 0.38 nM.
The same measure, in the same setting: the value for B13 was 0.303 nM; that for B14 was 0.3 nM.
Still for that read-out and setting: the value for B21 was 0.3 nM; that for B15 was 0.889 nM.

A further assay deals with T4, human serum albumin (human, UniProt P02768 25-609).
T4 construct: On the Biacore chip; also called human albumin
Experiment: not given
Regarding B16, the binding result is given as “binds”.
On to B17, for which the binding result is recorded as “binds”.
Still for that read-out and setting: the value for B18 was “binds”; that for B19 was “binds”.
Same read-out and setting: the value for B20 was “binds”.

The next assay concerns the target T1, human TNFα.
Experiment: not given
The source holds these as a separate data set.
As to B5, the koff stood at 0.00063 s⁻¹.
On the same count and under the same terms, the value for B6 was 0.00084 s⁻¹.

The next assay deals with T1, human TNFα.
Experiment: not given
This is another data set of the same source.
B7 had a koff of 0.00066 s⁻¹.
Still for that read-out and setting: the value for B8 was 0.0007 s⁻¹; that for B9 was 0.0011 s⁻¹.
Still for that read-out and setting: the value for B10 was 0.00054 s⁻¹.
In the case of B11, the koff is 0.00079 s⁻¹.
